Blank lines part the entries; values can stand above or below the binder they belong to.
Legend:
[1] = target: TCR of the MBP-69-89 specific short-term rat T-cell line (rat); experiment: cell-based or functional assay
[2] = target: rat BV8S2 TCR of the A1 T-cell hybridoma (C14/BW12-12A1), specific for Gp-BP-72-89 (rat); experiment: flow cytometry on A1 hybridoma
[3] = target: rat BV8S2 TCR of the A1 T-cell hybridoma (C14/BW12-12A1), specific for Gp-BP-72-89 (rat); experiment: flow cytometry on A1 hybridoma, 10 µM complex, 17 h at 4 C, detection with OX6-PE
[4] = target: TCR of the cardiac myosin CM-2-specific cell line (rat); experiment: flow cytometry on CM-2 cell line (blocked with unconjugated OX6), 10 µM complex, detection with OX6-PE
[5] = target: rat BV8S2 TCR of the A1 T-cell hybridoma (C14/BW12-12A1), specific for Gp-BP-72-89 (rat); experiment: flow cytometry on A1 hybridoma with directly A488-labelled complex, 3 h at 4 C

B1: β1α1/MBP-69-89 complex (rat RT1.B β1α1 construct loaded with MBP-69-89 peptide) (peptide-MHC)
chain: MGRDSPRDFVYQFKGLCYYTNGTQRIRDVIRYIYNQEEYLRYDSDVGEYRALTELGRPSAEYFNKQYLEQTRAELDTVCRHNYEGSEVRTSLRRLGGQDDIEADHVAAYGINIYQYYESRGQFTHEFDGDEEFYVDLDKKETIWRIPEFGQLTSFDPQGGLQNIAIIKHNLEILMKRSNSTQAVN
peptide: GSLPQKSQRSQDENPVVHF
inhibition of proliferation ([3H]thymidine) of MBP-69-89 specific T-cell line after pre-treatment with 10 nM complex [1]: > 90% | fold increase in MFI over background [2]: 10 fold | mean fluorescence intensity (MFI) [3]: 800 Units

B2: β1α1/MBP-55-69 complex (rat RT1.B β1α1 loaded with Gp-MBP-55-69 peptide) (peptide-MHC)
chain: B1 chain
peptide: SGKDSHHAARTTHYG
inhibition of proliferation ([3H]thymidine) of MBP-69-89 specific T-cell line after pre-incubation with 20 µM complex [1]: 27%

The next lines start with the values.

mean fluorescence intensity (MFI) [4]: 1800 Units
B3: β1α1/CM-2 complex (rat RT1.B β1α1 construct loaded with cardiac myosin peptide CM-2) (peptide-MHC)
chain: B1 chain
peptide: KLELQSALEEAEASLEH

MCI [5]: 300 Units
B4: A488-conjugated β1α1 loaded with MBP-69-89 (peptide-MHC)
chain: B1 chain
peptide: GSLPQKSQRSQDENPVVHF
modifications: Alexa-488 dye conjugated (molar ratio dye/protein=1), site not stated
